The MegaScale stability set (Tsuboyama et al. 2023)

B1: EHEE_rd4_0726 (parent)
chain: DIEITTNGEEDAKRVIKELQKRNLEYHIEVHGNQWVIKVR

Variants of: B1
Test: folding stability dG (cDNA display proteolysis); higher = more stable
Details: PBS, room temperature

| Variant | folding stability dG [kcal/mol] |
| --- | --- |
| DIEITTNGEEDAQRVIKELQKRNLEYHIEVHGNQWVIKVR [K13Q] | 2.52 |
| DIEITTNGEEDASRVIKELQKRNLEYHIEVHGNQWVIKVR [K13S] | 1.93 |
| DIEITTNGEEDAIRVIKELQKRNLEYHIEVHGNQWVIKVR [K13I] | 2.52 |
| DIEITTNGEEDAARVIKELQKRNLEYHIEVHGNQWVIKVR [K13A] | 2.4 |
| DIEITTNGEEDAFRVIKELQKRNLEYHIEVHGNQWVIKVR [K13F] | 2.58 |
| DIEITTNGEEDAYRVIKELQKRNLEYHIEVHGNQWVIKVR [K13Y] | 2.73 |
| DIEITTNGEEDALRVIKELQKRNLEYHIEVHGNQWVIKVR [K13L] | 2.76 |
| DIEITTNGEEDANRVIKELQKRNLEYHIEVHGNQWVIKVR [K13N] | 2.32 |
| DIEITTNGEEDAPRVIKELQKRNLEYHIEVHGNQWVIKVR [K13P] | 0.028 |
| DIEITTNGEEDAMRVIKELQKRNLEYHIEVHGNQWVIKVR [K13M] | 2.96 |
| DIEITTNGEEDAGRVIKELQKRNLEYHIEVHGNQWVIKVR [K13G] | 1.76 |
| DIEITTNGEEDARRVIKELQKRNLEYHIEVHGNQWVIKVR [K13R] | 2.71 |
| DIEITTNGEEDACRVIKELQKRNLEYHIEVHGNQWVIKVR [K13C] | 2.59 |
| DIEITTNGEEDATRVIKELQKRNLEYHIEVHGNQWVIKVR [K13T] | 1.96 |
| DIEITTNGEEDAHRVIKELQKRNLEYHIEVHGNQWVIKVR [K13H] | 2.24 |
| DIEITTNGEEDADRVIKELQKRNLEYHIEVHGNQWVIKVR [K13D] | 1.72 |
| DIEITTNGEEDAWRVIKELQKRNLEYHIEVHGNQWVIKVR [K13W] | 3 |
| DIEITTNGEEDAVRVIKELQKRNLEYHIEVHGNQWVIKVR [K13V] | 2.12 |
| DIEITTNGEEDAERVIKELQKRNLEYHIEVHGNQWVIKVR [K13E] | 1.97 |
| DIEITTNGEERAKRVIKELQKRNLEYHIEVHGNQWVIKVR [D11R] | 1.99 |
| DIEITTNGEEPAKRVIKELQKRNLEYHIEVHGNQWVIKVR [D11P] | 1.49 |

| Variant | folding stability dG [kcal/mol] |
| --- | --- |
| DIEITTNGEETAKRVIKELQKRNLEYHIEVHGNQWVIKVR [D11T] | 2.05 |
| DIEITTNGEEWAKRVIKELQKRNLEYHIEVHGNQWVIKVR [D11W] | 2.62 |
| DIEITTNGEESAKRVIKELQKRNLEYHIEVHGNQWVIKVR [D11S] | 2.3 |
| DIEITTNGEEVAKRVIKELQKRNLEYHIEVHGNQWVIKVR [D11V] | 1.93 |
| DIEITTNGEEQAKRVIKELQKRNLEYHIEVHGNQWVIKVR [D11Q] | 2.63 |
| DIEITTNGEEYAKRVIKELQKRNLEYHIEVHGNQWVIKVR [D11Y] | 2.21 |
| DIEITTNGEEDQKRVIKELQKRNLEYHIEVHGNQWVIKVR [A12Q] | 0.813 |
| DIEITTNGEEDEKRVIKELQKRNLEYHIEVHGNQWVIKVR [A12E] | -0.056 |
| DIEITTNGEEDVKRVIKELQKRNLEYHIEVHGNQWVIKVR [A12V] | 1.74 |
| DIEITTNGEEDLKRVIKELQKRNLEYHIEVHGNQWVIKVR [A12L] | 2.53 |
| DIEITTNGEEDHKRVIKELQKRNLEYHIEVHGNQWVIKVR [A12H] | 1.01 |
| DIEITTNGEEDWKRVIKELQKRNLEYHIEVHGNQWVIKVR [A12W] | 1.51 |
| DIEITTNGEEDYKRVIKELQKRNLEYHIEVHGNQWVIKVR [A12Y] | 1.82 |
| DIEITTNGEEDKKRVIKELQKRNLEYHIEVHGNQWVIKVR [A12K] | 1.06 |
| DIEITTNGEEDNKRVIKELQKRNLEYHIEVHGNQWVIKVR [A12N] | 0.444 |
| DIEITTNGEEDTKRVIKELQKRNLEYHIEVHGNQWVIKVR [A12T] | 1.74 |
| DIEITTNGEEDRKRVIKELQKRNLEYHIEVHGNQWVIKVR [A12R] | 1.17 |
| DIEITTNGEEDSKRVIKELQKRNLEYHIEVHGNQWVIKVR [A12S] | 1.28 |
| DIEITTNGEEDGKRVIKELQKRNLEYHIEVHGNQWVIKVR [A12G] | 1.43 |
| DIEITTNGEEDFKRVIKELQKRNLEYHIEVHGNQWVIKVR [A12F] | 2.45 |
| DIEITTNGEEDPKRVIKELQKRNLEYHIEVHGNQWVIKVR [A12P] | -0.076 |

| Variant | folding stability dG [kcal/mol] |
| --- | --- |
| DIEITTNGEEDMKRVIKELQKRNLEYHIEVHGNQWVIKVR [A12M] | 2.51 |
| DIEITTNGEEDIKRVIKELQKRNLEYHIEVHGNQWVIKVR [A12I] | 1.49 |
| DIEITTNGEEDAKAVIKELQKRNLEYHIEVHGNQWVIKVR [R14A] | 2.33 |
| DIEITTNGEEDAKMVIKELQKRNLEYHIEVHGNQWVIKVR [R14M] | 2.27 |
| DIEITTNGEEDAKSVIKELQKRNLEYHIEVHGNQWVIKVR [R14S] | 1.82 |
| DIEITTNGEEDAKYVIKELQKRNLEYHIEVHGNQWVIKVR [R14Y] | 2.2 |
| DIEITTNGEEDAKLVIKELQKRNLEYHIEVHGNQWVIKVR [R14L] | 2.3 |
| DIEITTNGEEDAKIVIKELQKRNLEYHIEVHGNQWVIKVR [R14I] | 2.19 |
| DIEITTNGEEDAKPVIKELQKRNLEYHIEVHGNQWVIKVR [R14P] | 1.04 |
| DIEITTNGEEDAKFVIKELQKRNLEYHIEVHGNQWVIKVR [R14F] | 2.24 |
| DIEITTNGEEDAKEVIKELQKRNLEYHIEVHGNQWVIKVR [R14E] | 2.04 |
| DIEITTNGEEDAKVVIKELQKRNLEYHIEVHGNQWVIKVR [R14V] | 2.04 |
| DIEITTNGEEDAKGVIKELQKRNLEYHIEVHGNQWVIKVR [R14G] | 1.51 |
| DIEITTNGEEDAKNVIKELQKRNLEYHIEVHGNQWVIKVR [R14N] | 1.9 |
| DIEITTNGEEDAKCVIKELQKRNLEYHIEVHGNQWVIKVR [R14C] | 2.57 |
| DIEITTNGEEDAKDVIKELQKRNLEYHIEVHGNQWVIKVR [R14D] | 1.59 |
| DIEITTNGEEDAKTVIKELQKRNLEYHIEVHGNQWVIKVR [R14T] | 1.84 |
| DIEITTNGEEDAKKVIKELQKRNLEYHIEVHGNQWVIKVR [R14K] | 2.43 |
| DIEITTNGEEDAKHVIKELQKRNLEYHIEVHGNQWVIKVR [R14H] | 1.83 |
| DIEITTNGEEDAKWVIKELQKRNLEYHIEVHGNQWVIKVR [R14W] | 2.85 |
| DIEITTNGEEDAKQVIKELQKRNLEYHIEVHGNQWVIKVR [R14Q] | 2 |
